One molecule from paper PMC11849118 can be followed below.

The experiment concerns the target T1, CFP-tagged hABHD5 (Human ABHD5-ECFP) (human), Q8WTS1.
T1 chain: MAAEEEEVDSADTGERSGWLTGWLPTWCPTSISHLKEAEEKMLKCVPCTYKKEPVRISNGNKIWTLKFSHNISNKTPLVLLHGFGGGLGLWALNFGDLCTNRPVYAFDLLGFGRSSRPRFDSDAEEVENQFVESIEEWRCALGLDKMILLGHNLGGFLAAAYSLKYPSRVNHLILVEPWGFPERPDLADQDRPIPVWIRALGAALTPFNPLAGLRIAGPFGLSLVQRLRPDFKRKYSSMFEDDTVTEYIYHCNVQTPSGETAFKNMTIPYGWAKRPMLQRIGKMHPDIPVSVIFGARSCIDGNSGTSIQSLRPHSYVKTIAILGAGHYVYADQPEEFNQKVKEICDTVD
Kind of experiment: fluorescence cross-correlation spectroscopy (FCCS); live cell dual color FCCS in transfected cells loaded with oleic acid overnight; excitation focused into the center of the cytoplasm; Fc = fraction of diffusers that are multicolored clusters. Conditions: remark: other sources report otherwise.

B1: WT hPNPLA3-EYFP, Q9NST1 1-481 (natural protein)
chain: MYDAERGWSLSFAGCGFLGFYHVGATRCLSEHAPHLLRDARMLFGASAGALHCVGVLSGIPLEQTLQVLSDLVRKARSRNIGIFHPSFNLSKFLRQGLCKCLPANVHQLISGKIGISLTRVSDGENVLVSDFRSKDEVVDALVCSCFIPFYSGLIPPSFRGVRYVDGGVSDNVPFIDAKTTITVSPFYGEYDICPKVKSTNFLHVDITKLSLRLCTGNLYLLSRAFVPPDLKVLGEICLRGYLDAFRFLEEKGICNRPQPGLKSSSEGMDPEVAMPSWANMSLDSSPESAALAVRLEGDELLDHLRLSILPWDESILDTLSPRLATALSEEMKDKGGYMSKICNLLPIRIMSYVMLPCTLPVESAIAIVQRLVTWLPDMPDDVLWLQWVTSQVFTRVLMCLLPASRSQMPVSSQQASPCTPEQDWPCWTPCSPKGCPAETKAEATPRSILRSSLNFFLGNKVPAGAEGLSTFPSFSLEKSL
Consider B1, for which the Fc (fraction of diffusers that are multicolored clusters of ABHD5 and PNPLA3) was determined as 0.32; the percent of ABHD5 codiffusing with PNPLA3 was 24%; the percent of PNPLA3 codiffusing with ABHD5 worked out at 78%.
